The values below come from patent US11471462B2, “Compositions and methods for detecting and treating diabetes” (THE BROAD INSTITUTE, INC., priority 2016, dated 2022).

Sequences and labels used below:
B1: TUBA4A (protein)
chain: MRECISVHVGQAGVQMGNACWELYCLEHGIQPDGQMPSDKTIGGGDDSFTTFFCETGAGKHVPRAVFVDLEPTVIDEIRNGPYRQLFHPEQLITGKEDAANNYARGHYTIGKEIIDPVLDRIRKLSDQCTGLQGFLVFHSFGGGTGSGFTSLLMERLSVDYGKKSKLEFSIYPAPQVSTAVVEPYNSILTTHTTLEHSDCAFMVDNEAIYDICRRNLDIERPTYTNLNRLISQIVSSITASLRFDGALNVDLTEFQTNLVPYPRIHFPLATYAPVISAEKAYHEQLSVAEITNACFEPANQMVKCDPRHGKYMACCLLYRGDVVPKDVNAAIAAIKTKRSIQFVDWCPTGFKVGINYQPPTVVPGGDLAKVQRAVCMLSNTTAIAEAWARLDHKFDLMYAKRAFVHWYVGEGMEEGEFSEAREDMAALEKDYEEVGIDSYEDEDEGEE
B2: QIL1 (protein)
chain: MVARVWSLMRFLIKGSVAGGAVYLVYDQELLGPSDKSQAALQKAGEVVPPAMYQFSQYVCQQTGLQIPQLPAPPKIYFPIRDSWNAGIMTVMSALSVAPSKAREYSKEGWEYVKARTK
B3: PSMA3 (protein)
chain: SSIGTGYDLSASTFSPDGRVFQVEYAMKAVENSSTAIGIRCKDGVVFGVEKLVLSKLYEEGSNKRLFNVDRHVGMAVAGLLADARSLADIAREEASNFRSNFGYNIPLKHLADRVAMYVHAYTLYSAVRPFGCSFMLGSYSVNDGAQLYMIDPSGVSYGYWGCAIGKARQAAKTEIEKLQMKEMTCRDIVKEVAKIIYIVHDEVKDKAFELELSWVGELTNGRHEIVPKDIREEAEKYAKESLKEEDESDDDNM
B4: DHCR7 (protein)
chain: MAAKSQPNIPKAKSLDGVTNDRTASQGQWGRAWEVDWFSLASVIFLLLFAPFIVYYFIMACDQYSCALTGPVVDIVTGHARLSDIWAKTPPITRKAAQLYTLWVTFQVLLYTSLPDFCHKFLPGYVGGIQEGAVTPAGVVNKYQINGLQAWLLTHLLWFANAHLLSWFSPTIIFDNWIPLLWCANILGYAVSTFAMVKGYFFPTSARDCKFTGNFFYNYMMGIEFNPRIGKWFDFKLFFNGRPGIVAWTLINLSFAAKQRELHSHVTNAMVLVNVLQAIYVIDFFWNETWYLKTIDICHDHFGWYLGWGDCVWLPYLYTLQGLYLVYHPVQLSTPHAVGVLLLGLVGYYIFRVANHQKDLFRRTDGRCLIWGRKPKVIECSYTSADGQRHHSKLLVSGFWGVARHFNYVGDLMGSLAYCLACGGGHLLPYFYIIYMAILLTHRCLRDEHRCASKYGRDWERYTAAVPYRLLPGIF
B5: HEATR2 (protein)
chain: AALGVAEAVAAPHPAEGAETAEAVELSRALSRLLPGLEADSKPGRRRALEALRRALEEPGPAADPTAFQGPWARLLLPRLLRCLSDPAEGCRALAVHLLDLGLRRAARPRDALPRLLPALAARLAGPVPARRPPEACEELRLALVQLLGLAVDLCGAALAPHLDDALRALRCSLLDPFAAVRRESCSCAAALAQATPDHFHMQSESLIGPLMQTISHQHWKVRVAAIEATGAVIHFGNGKSVDDVLSHFAQRLFDDVPQVRRAVASVVGGWLLCLRDRYSFFHKLIPLLLSSLNDEVPEVRQLAASLWEDVGLQWQKENEEDLKDKLDFAPPTPPHYPPHERRPVLGCRELVFRNLSKILPALCHDITDWVVGTRVKSAQLLPVLLLHAEDHATQHLEVVLRTLFQACTDEEAAVVQSCTRSAELVGTFVSPEVFLKLILSTLKKTPSASGLLVLASAMRGCPREALQPHLAAIATELAQAHICQASENDLYLERLLLCVQALVSVCHEDCGVASLQLLDVLLTIVALAGATGLRDKAQETMDSLAMVEGVSSCQDLYRKHIGPLLERVTASHLDWTAHSPELLQFSVIVAQSGPALGEALPHVVPTLRACLQPSQDPQMRLKLFSILSTVLLRATDTINSQGQFPSYLETVTKDILAPNLQWHAGRTAAAIRTAAVSCLWALTSSEVLSAEQIRDVQETLMPQVLTTLEEDSKMTRLISCRIINTFLKTSGGMTDPEKLIRIYPELLKRLDDVSNDVRMAAASTLVTWLQCVKGANAKSYYQSSVQYLYRELLVHLDDPERAIQDAILEVLKEGSGLFPDLLVRETEAVIHKHRSATYCEQLLQHVQAVPATQ
B6: STT3A (protein)
chain: MTKFGFLRLSYEKQDTLLKLLILSMAAVLSFSTRLFAVLRFESVIHEFDPYFNYRTTRFLAEEGFYKFHNWFDDRAWYPLGRIIGGTIYPGLMITSAAIYHVLHFFHITIDIRNVCVFLAPLFSSFTTIVTYHLTKELKDAGAGLLAAAMIAVVPGYISRSVAGSYDNEGIAIFCMLLTYYMWIKAVKTGSICWAAKCALAYFYMVSSWGGYVFLINLIPLHVLVLMLTGRFSHRIYVAYCTVYCLGTILSMQISFVGFQPVLSSEHMAAFGVFGLCQIHAFVDYLRSKLNPQQFEVLFRSVISLVGFVLLTVGALLMLTGKISPWTGRFYSLLDPSYAKNNIPIIASVSEHQPTTWSSYYFDLQLLVFMFPVGLYYCFSNLSDARIFIIMYGVTSMYFSAVMVRLMLVLAPVMCILSGIGVSQVLSTYMKNLDISRPDKKSKKQQDSTYPIKNEVASGMILVMAFFLITYTFHSTWVTSEAYSSPSIVLSARGGDGSRIIFDDFREAYYWLRHNTPEDAKVMSWWDYGYQITAMANRTILVDNNTWNNTHISRVGQAMASTEEKAYEIMRELDVSYVLVIFGGLTGYSSDDINKFLWMVRIGGSTDTGKHIKENDYYTPTGEFRVDREGSPVLLNCLMYKMCYYRFGQVYTEAKRPPGFDRVRNAEIGNKDFELDVLEEAYTTEHWLVRIYKVKDLDNRGLSRT
B7: TUBA1C (protein)
chain: MTAWFNGVEELGRDECFVCLELDPSNGSFLNAKLYISNWILIYFTRTLQLPAPFNTCTSSKSRGEPGCDSKRECISIHVGQAGVQIGNACWELYCLEHGIQPDGQMPSDKTIGGGDDSFNTFFSETGAGKHVPRAVFVDLEPTVIDEVRTGTYRQLFHPEQLITGKEDAANNYARGHYTIGKEIIDLVLDRIRKLADQCTGLQGFLVFHSFGGGTGSGFTSLLMERLSVDYGKKSKLEFSIYPAPQVSTAVVEPYNSILTTHTTLEHSDCAFMVDNEAIYDICRRNLDIERPTYTNLNRLISQIVSSITASLRFDGALNVDLTEFQTNLVPYPRIHFPLATYAPVISAEKAYHEQLTVAEITNACFEPANQMVKCDPRHGKYMACCLLYRGDVVPKDVNAAIATIKTKRTIQFVDWCPTGFKVGINYQPPTVVPGGDLAKVQRAVCMLSNTTAVAEAWARLDHKFDLMYAKRAFVHWYVGEGMEEGEFSEAREDMAALEKDYEEVGADSADGEDEGEEY
B8: SEC61A1 (protein)
chain: MTQTARVLVKFLEVIKPFCVILPEIQKPERKIQFKEKVLWTAITLFIFLVCCQIPLFGIMSSDSADPFYWMRVILASNRGTLMELGISPIVTSGLIMQLLAGAKIIEVGDTPKDRALFNGAQKLFGMIITIGQSIVYVMTGMYGDPSEMGAGICLLITIQLFVAGLIVLLLDELLQKGYGLGSGISLFIATNICETIVWKAFSPTTVNTGRGMEFEGAIIALFHLLATRTDKVRALREAFYRQNLPNLMNLIATIFVFAVVIYFQGFRVDLPIKSARYRGQYNTYPIKLFYTSNIPIILQSALVSNLYVISQMLSARFSGNLLVSLLGTWSDTSSGGPARAYPVGGLCYYLSPPESFGSVLEDPVHAVVYIVFMLGSCAFFSKTWIEVSGSSAKDVAKQLKEQQMVMRGHRETSMVHELNRYIPTAAAFGGLCIGALSVLADFLGAIGSGTGILLAVTIIYQYFEIFVKEQSEVGSMGALLF
B9: DNAJC3 (protein)
chain: GVNADVEKHLELGKKLLAAGQLADALSQFHAAVDGDPDNYIAYYRRATVFLAMGKSKAALPDLTKVIQLKMDFTAARLQRGHLLLKQGKLDEAEDDFKKVLKSNPSENEEKEAQSQLIKSDEMQRLRSQALNAFGSGDYTAAIAFLDKILEVCVWDAELRELRAECFIKEGEPRKAISDLKAASKLKNDNTEAFYKISTLYYQLGDHELSLSEVRECLKLDQDHKRCFAHYKQVKKLNKLIESAEELIRDGRYTDATSKYESVMKTEPSIAEYTVRSKERICHCFSKDEKPVEAIRVCSEVLQMEPDNVNALKDRAEAYLIEEMYDEAIQDYETAQEHNENDQQIREGLEKAQRLLKQSQKRDYYKILGVKRNAKKQEIIKAYRKLALQWHPDNFQNEEEKKKAEKKFIDIAAAKEVLSDPEMRKKFDDGEDPLDAESQQGGGGNPFHRSWNSWQGFNPFSSGGPFRFKFHFN
B10: DNAJC7 (protein)
chain: AAAAECDVVMAATEPELLDDQEAKREAETFKEQGNAYYAKKDYNEAYNYYTKAIDMCPKNASYYGNRAATLMMLGRFREALGDAQQSVRLDDSFVRGHLREGKCHLSLGNAMAACRSFQRALELDHKNAQAQQEFKNANAVMEYEKIAETDFEKRDFRKVVFCMDRALEFAPACHRFKILKAECLAMLGRYPEAQSVASDILRMDSTNADALYVRGLCLYYEDCIEKAVQFFVQALRMAPDHEKACIACRNAKALKAKKEDGNKAFKEGNYKLAYELYTEALGIDPNNIKTNAKLYCNRGTVNSKLRKLDDAIEDCTNAVKLDDTYIKAYLRRAQCYMDTEQYEEAVRDYEKVYQTEKTKEHKQLLKNAQLELKKSKRKDYYKILGVDKNASEDEIKKAYRKRALMHHPDRHSGASAEVQKEEEKKFKEVGEAFTILSDPKKKTRYDSGQDLDEEGMNMGDFDPNNIFKAFFGGPGGFSFEASGPGNFFFQFG
B11: BRAT1 (protein)
chain: MDPECAQLLPALCAVLVDPRQPVADDTCLEKLLDWFKTVTEGESSVVLLQEHPCLVELLSHVLKVQDLSSGVLSFSLRLAGTFAAQENCFQYLQQGELLPGLFGEPGPLGRATWAVPTVRSGWIQGLRSLAQHPSALRFLADHGAVDTIFSLQGDSSLFVASAASQLLVHVLALSMRGGAEGQPCLPGGDWPACAQKIMDHVEESLCSAATPKVTQALNVLTTTFGRCQSPWTEALWVRLSPRVACLLERDPIPAAHSFVDLLLCVARSPVFSSSDGSLWETVARALSCLGPTHMGPLALGILKLEHCPQALRTQAFQVLLQPLACVLKATVQAPGPPGLLDGTADDATTVDTLLASKSSCAGLLCRTLAHLEELQPLPQRPSPWPQASLLGATVTVLRLCDGSAAPASSVGGHLCGTLAGCVRVQRAALDFLGTLSQGTGPQELVTQALAVLLECLESPGSSPTVLKKAFQATLRWLLSSPKTPGCSDLGPLIPQFLRELFPVLQKRLCHPCWEVRDSALEFLTQLSRHWGGQADFRCALLASEVPQLALQLLQDPESYVRASAVTAMGQLSSQGLHAPTSPEHAEARQSLFLELLHILSVDSEGFPRRAVMQVFTEWLRDGHADAAQDTEQFVATVLQAASRDLDWEVRAQGLELALVFLGQTLGPPRTHCPYAVALPEVAPAQPLTEALRALCHVGLFDFAFCALFDCDRPVAQKSCDLLLFLRDKIASYSSLREARGSPNTASAEATLPRWRAGEQAQPPGDQEPEAVLAMLRSLDLEGLRSTLAESSDHVEKSPQSLLQDMLATGGFLQGDEADCY

This test relates to SLC16A11. The test can be described thus: SLC16A11 protein-protein interaction study (immunoprecipitation, quantitative mass spectrometry). Details: species or system human. The settings on record: putative SLC16A11^REF interaction partners; immunoprecipitation from HEK293T cells vs empty vector control; Blandt-Altman.
For B1, the “BA log fold change” value was 1.02.

For B2, the “BA log fold change” value is on record as 1.08.

Turning to B3, the “BA log fold change” value is 1.09.

B4: the “BA log fold change” value amounted to 1.69.

With B5, the “BA log fold change” value turned out to be 1.03.

On to B6, for which the “BA log fold change” value is on record as 1.27.

Take B7: the “BA log fold change” value is reported as 1.04.

As to B8, the “BA log fold change” value turned out to be 1.84.

For B9, the “BA log fold change” value came to 1.22.

As for B10, the “BA log fold change” value came to 1.05.

Regarding B11, the “BA log fold change” value was found to be 1.04.
